Results as given in publication doi:10.64898/2025.12.15.694443.

Target: BRAF kinase domain (his6-BRAF^445-723-intein, intein cleaved) (human) (UniProt P15056)
Assay: mass photometry

For “BRAF kinase domain (his6-BRAF^445-723-intein, intein cleaved) (from UniProt P15056 445-723) (domain or fragment)”, the stoichiometry N was 2.
